Assay results reported in US20220002403A1 (Merck Sharp & Dohme, published 2022).
One block for each binder: values may come before it.

Key:
[1] = molecular target: T1, human ILT4 expressed on CHO cells (CHO/ILT4 cell line) (human, UniProt Q8N423 22-597); test: cell-based ligand blocking assay: CHO/ILT4 cells pre-incubated with antibody (1-20,000 ng/mL), then biotinylated HLA-G/Fc
T1 construct: also called CHO/ILT4+ cells; CHO-expressed ILT4

[2] = molecular target: T2, recombinant human ILT4 antigen chemically coupled to Luminex beads (ILT4/Fc) (human, UniProt Q8N423 22-460); test: Luminex ligand blocking assay: bead-coupled ILT4 pre-incubated with antibody (0.5-9,000 ng/mL), then 50 nM biotinylated HLA-G/Fc
T2 construct: also called Luminex bead-coupled ILT4/Fc; not shown: Fc part
T2 sequence (Q8N423 other isoform, or with tags, fused parts or gaps): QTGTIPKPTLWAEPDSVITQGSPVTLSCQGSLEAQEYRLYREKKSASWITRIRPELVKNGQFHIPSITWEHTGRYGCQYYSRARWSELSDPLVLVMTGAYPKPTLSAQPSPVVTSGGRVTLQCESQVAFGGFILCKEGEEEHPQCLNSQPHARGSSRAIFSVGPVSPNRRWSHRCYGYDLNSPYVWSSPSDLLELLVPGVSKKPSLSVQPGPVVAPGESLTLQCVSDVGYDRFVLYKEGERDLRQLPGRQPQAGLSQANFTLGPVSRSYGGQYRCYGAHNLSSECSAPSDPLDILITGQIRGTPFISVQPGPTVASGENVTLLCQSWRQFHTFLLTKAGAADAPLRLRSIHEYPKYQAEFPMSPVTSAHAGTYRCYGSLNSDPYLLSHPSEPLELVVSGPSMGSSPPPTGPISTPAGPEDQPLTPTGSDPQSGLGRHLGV

[3] = molecular target: T3, ILT4-His (recombinant extracellular domain of human ILT4 fused to a poly-Histidine tag) (human, UniProt Q8N423 22-460); test: SPR (Biacore T200): mAb captured by human Fc capture on CM5 chip, ILT4-His titrated; 1:1 model; n=2
T3 construct: also called polyhistidine-tagged human ILT4; recombinant histidine tagged, extracellular domain of ILT4; not shown: poly-histidine tag

[4] = molecular target: T4, human ILT3 (two variants) expressed on mouse 3A9 T cells (human, UniProt Q8NHJ6 22-448); test: flow cytometry on 3A9 T cell transfectants (two ILT3 variants)
T4 construct: whole, on cells; Two variants were tested

[5] = molecular target: T5, human LILRB5 expressed on mouse 3A9 T cells (human, UniProt O75023 24-590); test: flow cytometry on 3A9 T cell transfectants
T5 construct: whole, on cells
T5 sequence (O75023 24-590): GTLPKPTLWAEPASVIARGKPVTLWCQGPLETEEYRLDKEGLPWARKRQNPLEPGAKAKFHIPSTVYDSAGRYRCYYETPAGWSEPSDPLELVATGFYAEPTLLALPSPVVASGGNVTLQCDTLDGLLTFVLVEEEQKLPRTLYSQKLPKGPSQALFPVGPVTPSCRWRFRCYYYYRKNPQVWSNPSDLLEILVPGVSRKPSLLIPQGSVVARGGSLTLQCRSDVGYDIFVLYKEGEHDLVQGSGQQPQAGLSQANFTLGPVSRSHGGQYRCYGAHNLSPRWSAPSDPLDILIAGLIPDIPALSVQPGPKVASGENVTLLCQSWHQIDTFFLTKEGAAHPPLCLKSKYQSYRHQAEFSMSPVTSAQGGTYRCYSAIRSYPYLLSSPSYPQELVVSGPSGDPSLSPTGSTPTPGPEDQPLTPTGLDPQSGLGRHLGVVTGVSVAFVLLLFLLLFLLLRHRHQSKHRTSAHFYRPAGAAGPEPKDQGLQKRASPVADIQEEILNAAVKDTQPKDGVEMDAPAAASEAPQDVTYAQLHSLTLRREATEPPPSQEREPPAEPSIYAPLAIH

[6] = molecular target: T6, human ILT2 expressed on mouse 3A9 T cells (human, UniProt Q8NHL6 24-650); test: flow cytometry on 3A9 T cell transfectants
T6 construct: whole, on cells
T6 sequence (Q8NHL6 24-650): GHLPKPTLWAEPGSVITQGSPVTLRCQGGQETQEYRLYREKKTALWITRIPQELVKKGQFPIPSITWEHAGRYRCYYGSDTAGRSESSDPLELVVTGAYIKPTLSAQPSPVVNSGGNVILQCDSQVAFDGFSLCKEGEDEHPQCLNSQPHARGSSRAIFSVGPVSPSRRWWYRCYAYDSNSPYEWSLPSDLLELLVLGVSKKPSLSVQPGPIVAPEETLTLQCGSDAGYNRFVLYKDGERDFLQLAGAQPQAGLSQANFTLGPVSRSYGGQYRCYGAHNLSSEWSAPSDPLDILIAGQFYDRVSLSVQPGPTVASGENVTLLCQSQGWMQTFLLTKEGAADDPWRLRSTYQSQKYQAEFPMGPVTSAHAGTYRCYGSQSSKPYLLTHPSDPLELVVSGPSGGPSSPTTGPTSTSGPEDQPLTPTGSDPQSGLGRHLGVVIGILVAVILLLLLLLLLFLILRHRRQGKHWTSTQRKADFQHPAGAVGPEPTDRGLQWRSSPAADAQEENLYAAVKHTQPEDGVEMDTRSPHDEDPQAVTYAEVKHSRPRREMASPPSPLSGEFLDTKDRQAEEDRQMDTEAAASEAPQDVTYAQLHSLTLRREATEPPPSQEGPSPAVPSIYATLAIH

[7] = molecular target: T7, human LILRA2 expressed on mouse 3A9 T cells (human, UniProt Q8N149 24-483); test: flow cytometry on 3A9 T cell transfectants
T7 construct: whole, on cells
T7 sequence (Q8N149 24-483): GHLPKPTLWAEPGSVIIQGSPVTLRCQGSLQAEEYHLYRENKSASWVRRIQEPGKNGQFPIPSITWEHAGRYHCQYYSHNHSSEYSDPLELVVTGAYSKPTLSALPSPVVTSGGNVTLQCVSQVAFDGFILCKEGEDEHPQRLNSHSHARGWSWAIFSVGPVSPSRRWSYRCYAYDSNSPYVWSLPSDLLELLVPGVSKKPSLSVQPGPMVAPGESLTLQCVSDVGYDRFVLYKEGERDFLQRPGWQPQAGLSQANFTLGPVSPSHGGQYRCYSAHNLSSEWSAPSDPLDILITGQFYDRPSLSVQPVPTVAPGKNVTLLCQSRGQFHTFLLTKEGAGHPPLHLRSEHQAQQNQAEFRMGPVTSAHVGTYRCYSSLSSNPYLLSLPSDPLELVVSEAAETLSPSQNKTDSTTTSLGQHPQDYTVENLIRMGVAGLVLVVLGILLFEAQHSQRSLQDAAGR

[8] = molecular target: T8, human ILT5 expressed on mouse 3A9 T cells (human, UniProt O75022 24-631); test: flow cytometry on 3A9 T cell transfectants
T8 construct: whole, on cells

[9] = molecular target: T9, human ILT7 expressed on mouse 3A9 T cells (human, UniProt P59901 24-499); test: flow cytometry on 3A9 T cell transfectants
T9 construct: whole, on cells
T9 sequence (P59901 24-499): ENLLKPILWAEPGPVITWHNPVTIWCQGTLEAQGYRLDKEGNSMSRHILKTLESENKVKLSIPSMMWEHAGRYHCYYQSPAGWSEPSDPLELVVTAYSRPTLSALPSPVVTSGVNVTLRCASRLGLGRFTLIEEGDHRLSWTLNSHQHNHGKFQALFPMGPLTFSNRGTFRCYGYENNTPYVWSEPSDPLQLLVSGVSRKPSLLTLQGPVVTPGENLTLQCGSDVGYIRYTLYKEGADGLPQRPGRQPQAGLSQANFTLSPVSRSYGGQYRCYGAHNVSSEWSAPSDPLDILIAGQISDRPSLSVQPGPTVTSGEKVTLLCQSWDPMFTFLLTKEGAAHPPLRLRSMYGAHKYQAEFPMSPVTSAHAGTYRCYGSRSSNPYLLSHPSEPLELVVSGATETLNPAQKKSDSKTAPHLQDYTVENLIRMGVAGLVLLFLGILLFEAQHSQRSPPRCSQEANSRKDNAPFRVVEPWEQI

[10] = molecular target: T10, human ILT11 expressed on mouse 3A9 T cells (human, UniProt A6NI73 42-299); test: flow cytometry on 3A9 T cell transfectants
T10 construct: whole, on cells
T10 sequence (A6NI73 42-299): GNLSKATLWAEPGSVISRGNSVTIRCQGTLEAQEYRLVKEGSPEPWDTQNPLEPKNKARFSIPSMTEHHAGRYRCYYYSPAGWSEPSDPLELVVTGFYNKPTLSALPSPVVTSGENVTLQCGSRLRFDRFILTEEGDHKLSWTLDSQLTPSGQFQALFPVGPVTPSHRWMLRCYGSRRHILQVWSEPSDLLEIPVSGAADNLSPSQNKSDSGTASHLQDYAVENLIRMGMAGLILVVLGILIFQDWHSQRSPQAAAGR

[11] = molecular target: T11, human ILT8 expressed on mouse 3A9 T cells (human, UniProt Q6PI73 24-481); test: flow cytometry on 3A9 T cell transfectants
T11 construct: whole, on cells
T11 sequence (Q6PI73 24-481): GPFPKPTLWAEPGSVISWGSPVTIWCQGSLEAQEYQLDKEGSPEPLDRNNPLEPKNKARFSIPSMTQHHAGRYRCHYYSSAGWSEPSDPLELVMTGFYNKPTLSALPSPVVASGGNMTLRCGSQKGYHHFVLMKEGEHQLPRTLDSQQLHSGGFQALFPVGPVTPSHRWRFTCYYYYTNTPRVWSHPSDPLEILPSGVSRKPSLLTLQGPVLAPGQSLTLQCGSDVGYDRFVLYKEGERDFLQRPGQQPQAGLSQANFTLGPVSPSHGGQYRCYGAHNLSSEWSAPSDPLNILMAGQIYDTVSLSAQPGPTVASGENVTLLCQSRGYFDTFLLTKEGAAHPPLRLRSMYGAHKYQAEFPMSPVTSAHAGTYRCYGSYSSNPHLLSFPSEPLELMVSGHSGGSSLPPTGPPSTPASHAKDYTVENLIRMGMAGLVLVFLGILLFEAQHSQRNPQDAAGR

[12] = molecular target: T12, human LILRA1 expressed on mouse 3A9 T cells (human, UniProt O75019 17-489); test: flow cytometry on 3A9 T cell transfectants
T12 construct: whole, on cells
T12 sequence (O75019 17-489): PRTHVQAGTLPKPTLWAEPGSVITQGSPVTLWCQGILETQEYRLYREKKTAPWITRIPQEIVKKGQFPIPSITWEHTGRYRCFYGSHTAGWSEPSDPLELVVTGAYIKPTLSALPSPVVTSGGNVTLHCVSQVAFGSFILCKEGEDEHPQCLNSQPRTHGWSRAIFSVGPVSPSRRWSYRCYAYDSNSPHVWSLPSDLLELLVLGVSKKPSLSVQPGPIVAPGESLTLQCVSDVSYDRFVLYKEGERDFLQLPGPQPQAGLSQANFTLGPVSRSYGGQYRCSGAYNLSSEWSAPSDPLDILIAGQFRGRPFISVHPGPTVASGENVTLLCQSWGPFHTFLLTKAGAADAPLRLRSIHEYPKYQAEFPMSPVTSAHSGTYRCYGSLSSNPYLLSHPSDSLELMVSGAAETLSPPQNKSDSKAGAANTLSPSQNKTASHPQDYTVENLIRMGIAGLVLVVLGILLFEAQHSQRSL

[13] = molecular target: T3, ILT4-His (recombinant extracellular …); test: SPR; ratio of KD to that of 1E1(G4) (the reference itself)

T1 sequence (Q8N423 other isoform, or with tags, fused parts or gaps): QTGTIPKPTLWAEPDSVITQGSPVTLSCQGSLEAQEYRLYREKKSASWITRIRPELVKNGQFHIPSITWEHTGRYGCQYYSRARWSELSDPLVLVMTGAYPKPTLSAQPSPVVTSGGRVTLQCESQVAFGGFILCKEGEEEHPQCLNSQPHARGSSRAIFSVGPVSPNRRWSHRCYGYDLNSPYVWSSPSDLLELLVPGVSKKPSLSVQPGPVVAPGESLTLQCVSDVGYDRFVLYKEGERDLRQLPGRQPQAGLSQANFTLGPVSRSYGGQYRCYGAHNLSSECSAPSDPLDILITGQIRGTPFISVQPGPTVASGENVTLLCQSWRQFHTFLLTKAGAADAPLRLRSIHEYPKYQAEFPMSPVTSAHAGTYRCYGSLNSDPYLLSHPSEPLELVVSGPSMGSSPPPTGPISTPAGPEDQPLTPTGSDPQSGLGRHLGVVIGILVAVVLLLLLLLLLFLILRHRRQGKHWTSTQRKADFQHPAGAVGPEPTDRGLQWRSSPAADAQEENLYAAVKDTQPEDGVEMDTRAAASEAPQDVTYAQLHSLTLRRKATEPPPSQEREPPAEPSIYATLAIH

B1: 1E1 (hIgG4 variant) (antibody)
heavy: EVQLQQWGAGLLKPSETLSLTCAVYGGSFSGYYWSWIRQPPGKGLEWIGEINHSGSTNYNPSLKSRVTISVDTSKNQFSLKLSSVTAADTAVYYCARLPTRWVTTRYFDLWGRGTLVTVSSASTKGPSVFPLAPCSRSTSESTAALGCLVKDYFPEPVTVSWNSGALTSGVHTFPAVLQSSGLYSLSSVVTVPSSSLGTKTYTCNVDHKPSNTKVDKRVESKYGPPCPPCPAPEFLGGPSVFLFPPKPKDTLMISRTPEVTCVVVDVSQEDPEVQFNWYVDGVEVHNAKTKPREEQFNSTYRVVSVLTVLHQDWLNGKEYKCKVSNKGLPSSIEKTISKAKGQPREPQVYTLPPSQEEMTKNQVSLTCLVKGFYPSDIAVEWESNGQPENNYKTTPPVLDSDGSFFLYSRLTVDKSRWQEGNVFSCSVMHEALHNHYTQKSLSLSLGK
light: ESVLTQPPSVSGAPGQRVTISCTGSSSNIGAGYDVHWYQQLPGTAPKLLIYGNSNRPSGVPDRFSVSKSGASASLAITGLQAEDEADYYCQSFDNSLSAYVFGGGTQLTVLGQPKAAPSVTLFPPSSEELQANKATLVCLISDFYPGAVTVAWKADSSPVKAGVETTTPSKQSNNKYAASSYLSLTPEQWKSHRSYSCQVTHEGSTVEKTVAPTECS
notes: The chain assignment is uncertain
IC50 [1]: 0.0984 µg/mL
IC50 [2]: 0.0192 µg/mL

B3: 2A6 (antibody, V domains shown)
VH: EVQLVQSGAEVKKPGSSVKVSCKASGGTFSSYAISWVRQAPGQGLEWMGGIIPIFGTANYAQKFQGRVTITADESTSTAYMELSSLRSEDTAVYYCARYFDSSGWYKGGAFDIWGQGTMVTVSS
VL: QSVLTQPSSLSASPGASASLTCTLRSGINVDTYRIHWYQQKPGSPPQYLLRYKSDSDKHQGSGVPSRFSGSKDPSANAGILLISGLQSEDEADYYCAIWYSSTWVFGGGTQLTVLG
notes: hIgG4 variant in the Luminex and cell assays; also called 2A6 (hIgG4 variant)
IC50 [1]: 0.233 µg/mL
IC50 [2]: 0.0177 µg/mL

B4: 1E1(G4) (antibody, human IgG4 S228P, lambda, V domains shown)
VH: EVQLQQWGAGLLKPSETLSLTCAVYGGSFSGYYWSWIRQPPGKGLEWIGEINHAGSTNYNPSLKSRVTISVDTSKNQFSLKLSSVTAADTAVYYCARLPTRWVTTRYFDLWGRGTLVTVSS
VL: ESVLTQPPSVSGAPGQRVTISCTGSSSNIGAGYDVHWYQQLPGTAPKLLIYGDSNRPSGVPDRFSVSKSGASASLAITGLQAEDEADYYCQSFDNSLSAYVFGGGTQLTVLG
notes: also called 1E1 VH Q1E, S54A/VL Q1E, N53D IgG4 S228P/Lambda
Kd [3]: 17 nM
koff [3]: 0.009 s⁻¹
binding result [4]: no binding (tested: 10 ug/mL)
binding result [5]: no binding (tested: 10 ug/mL)
binding result [6]: no binding (tested: 10 ug/mL)
binding result [7]: no binding (tested: 10 ug/mL)
binding result [8]: no binding (tested: 10 ug/mL)
binding result [9]: no binding (tested: 10 ug/mL)
binding result [10]: no binding (tested: 10 ug/mL)
binding result [11]: no binding (tested: 10 ug/mL)
binding result [12]: no binding (tested: 10 ug/mL)
KD Ratio [13]: 1

Next, values leading:

IC50 [1]: 0.374 µg/mL
IC50 [2]: 0.04 µg/mL
B2: 3G7 (antibody, V domains shown)
VH: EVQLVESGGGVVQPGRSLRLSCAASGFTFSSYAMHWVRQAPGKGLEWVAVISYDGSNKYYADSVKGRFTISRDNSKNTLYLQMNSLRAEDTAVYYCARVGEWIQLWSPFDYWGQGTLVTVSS
VL: DIQMTQSPSSVSASVGDRVTITCRASQGISSWLAWYQQKPGKAPKFLIYAASSLQSGVPSKFSGSGSGTDFTLTISSLQPEDFATYYCQQYNSYPPTFGGGTKVEIKR
notes: hIgG4 variant in the Luminex and cell assays; also called 3G7 (hIgG4 variant)

IC50 [1]: 0.0561 µg/mL
IC50 [2]: 0.0102 µg/mL
B5: 2C1 (antibody, V domains shown)
VH: EVQLVQSGAEVKKPGASVKVSCKVSGYTLTELSMHWVRQAPGKGLEWMGGFDPEDGETIYAQKFQGRVTMTEDTSTDTAYMELSSLRSEDTAVYYCARAGPLYTIFGVVIIPDNWFDPWGQGTLVTVSS
VL: ESVLTQPPSVSGAPGQRVTISCTGSSSNIGAGYDVHWYQQLPGTAPKLLIYGNSNRPSGVPDRFSGSKSGTSASLAITGLQAEDEADYYCQSYDSSLSGSGVVFGGGTQLIILG
notes: hIgG4 variant in the Luminex and cell assays; also called 2C1 (hIgG4 variant)
